The assay has as its target Peptide 1593 (…) (Mycobacterium tuberculosis). The assay can be described thus: SPR (Biacore), IgG amine-coupled, peptide as analyte. In general terms: SPR reads the build-up and loss of mass on a sensor chip optically.

What is called Kd is a measure of binding affinity in units of concentration. The term koff denotes the rate constant with which the complex falls apart. A high value points to fast dissociation. As usually defined, the kon is a measure of how fast the partners come together. A lower kon goes with slow association.

B1: 65D3 mutant IgG variant 2 (S55W-VH + S57T-VL) (antibody)
heavy: QSLEESGGRLVTPGGSLTLTCTVSGFSLSTHDISWVRQAPGKGLEWIGVIARRGWTYYASWAKGRFTISKTSTTVDLKITSPTIEDTATYFCAREEFDFWGQGTLVTVSSGQPKAPSVFPLAPCCGDTPSSTVTLGCLVKGYLPEPVTVTWNSGTLTNGVRTFPSVRQSSGLYSLSSVVSVTSSSQPVTCNVAHPATNTKVDKTVAPSTCSKPTCPPPELLGGPSVFIFPPKPKDTLMISRTPEVTCVVVDVSQDDPEVQFTWYINNEQVRTARPPLREQQFNSTIRVVSTLPIAHQDWLRGKEFKCKVHNKALPAPIEKTISKARGQPLEPKVYTMGPPREELSSRSVSLTCMINGFYPSDISVEWEKNGKAEDNYKTTPAVLDSDGSYFLYSKLSVPTSEWQRGDVFTCSVMHEALHNHYTQKSISRSPGK
light: AVLTQTASPVSAAVGGTVTISCQSSQSVYNNKELSWFQQKPGQPPKLLISYASTLATGVPSRFKGSGSGTQFTLTISDLECDDAATYYCLGGYASTIDMWAFGGGTEVVVKGDPVAPTVLIFPPAADQVATGTVTIVCVANKYFPDVTVTWEVDGTTQTTGIENSKTPQNSADCTYNLSSTLTLTSTQYNSHKEYTCKVTQGTTSVVQSFNRGDC
Consider B1, for which the Kd was found to be 3.27 nM, the koff was found to be 0.000393 s⁻¹ and the kon is 120000 M⁻¹ s⁻¹.

Values taken from US12649778.
